Our source for the Kd values is US20240026031A1 (University of California, published 2024).

For orientation: Kd means the free concentration of one partner at which half of the binding sites on the other are occupied at equilibrium, for simple one-to-one binding.

Residue numbers refer to the chain shown, from its start. In names and notes the source's numbering stands.

Experiment [1] addresses T1, RNF43 (UniProt Q68DV7 24-197, limits assumed).
T1 sequence (looked up): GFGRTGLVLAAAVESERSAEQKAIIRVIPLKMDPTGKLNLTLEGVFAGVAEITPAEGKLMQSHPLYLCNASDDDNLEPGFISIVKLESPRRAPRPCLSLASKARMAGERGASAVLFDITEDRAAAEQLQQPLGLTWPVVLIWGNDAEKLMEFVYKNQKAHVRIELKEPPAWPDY
Description: affinity for RNF43; method and format not stated; WT anti-RNF43 A5.

Experiment [2] addresses T1, RNF43. Kind of experiment: affinity for RNF43; method and format not stated; S113A mutant of CDR H3.
Experiment [3] has as its target T1, RNF43. Description: affinity for RNF43; method and format not stated; F115A mutant of CDR H3.

B1: anti-RNF43 A5 (WT RNF43 binder) (Fab, V domains shown)
VH: EVQLVESGGGLVQPGGSLRLSCAASGFNIYYYSMHWVRQAPGKGLEWVASISPYYSYTSYADSVKGRFTISADTSKNTAYLQMNSLRAEDTAVYYCARYGYYGWDYHRYSAFDYWGQGTLVTVSS
VL: DIQMTQSPSSLSASVGDRVTITCRASQSVGSALAWYQQKPGKAPKLLIYSASSLYSGVPSRFSGSRSGTDFTLTISSLQPEDFATYYCQQAYPITFGQGTKVEIKR
notes: also called WT RNF43 A5; clone anti-RNF43 A5
As for B1, in the experiment with RNF43 [1], the affinity, expressed as Kd, was 12.5 nM.

B2: anti-RNF43 A5 alanine mutant S113A (CDR H3) (Fab, V domains shown)
VH: B1 VH with S110A
VL: B1 VL
notes: also called 40 nM
B2: in the experiment with RNF43 [2], the dissociation constant (Kd) was determined as 40 nM.

B3: anti-RNF43 A5 alanine mutant F115A (CDR H3) (Fab, V domains shown)
VH: B1 VH with F112A
VL: B1 VL
As to B3, in the experiment with RNF43 [3], the Kd was 125 nM.
